{
  "source": "paper PMC11882435",
  "target": "RsmA (Pseudomonas aeruginosa) (UniProt O69078)",
  "sequence (O69078 whole entry)": "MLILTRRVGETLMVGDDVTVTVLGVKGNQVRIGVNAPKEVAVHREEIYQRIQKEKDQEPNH",
  "experiment": "EMSA",
  "details": "Filter binding: 10 mM Tris-HCl pH 7.5, 100 mM KCl, 10 mM MgCl2, 10 mM DTT, 10 ug/mL heparin, RNase inhibitor, 0.5 nM RNA, 37 C 30 min; Hill coefficient 2",
  "data": [
    {"substance": "rhlI leader", "values": [
      {"measurement": "Kd", "value": 0.0209, "unit": "µM"}
    ]}
  ]
}
